Legend:
hFcγRIIIa-V158 (human) [1] = target: hFcγRIIIa-V158 (human) (UniProt P08637); experiment: SPR, further study
hFcγRIIIa-V158 (human) [2] = target: hFcγRIIIa-V158 (human) (UniProt P08637); experiment: SPR (Carterra LSA), protein AG capture
hFcγRIIIa-V158 (human) [3] = target: hFcγRIIIa-V158 (human) (UniProt P08637); experiment: SPR (Carterra LSA), captured on protein A/G, hFcγRIIIa-V158 injected, 1:1 fit [Cont. 7]
hFcγRIIIa-V158 (human) [4] = target: hFcγRIIIa-V158 (human) (UniProt P08637); experiment: SPR (Carterra LSA), captured on protein A/G, hFcγRIIIa-V158 injected, 1:1 fit [Cont. 3]
hFcγRIIIa-V158 (human) [5] = target: hFcγRIIIa-V158 (human) (UniProt P08637); experiment: SPR (Carterra LSA), captured on protein A/G, hFcγRIIIa-V158 injected, 1:1 fit
hFcγRIIIa-V158 (human) [6] = target: hFcγRIIIa-V158 (human) (UniProt P08637); experiment: SPR (Carterra LSA), captured on protein A/G, hFcγRIIIa-V158 injected, 1:1 fit [Cont. 5]

hFcγRIIIa-V158 (human), sequence (P08637 17-208 F176V limits assumed): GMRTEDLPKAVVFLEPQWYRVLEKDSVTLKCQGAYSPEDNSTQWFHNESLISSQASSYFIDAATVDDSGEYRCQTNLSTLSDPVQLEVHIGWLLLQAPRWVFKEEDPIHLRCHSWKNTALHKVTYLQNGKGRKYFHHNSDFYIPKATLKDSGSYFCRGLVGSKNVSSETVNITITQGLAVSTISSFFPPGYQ

With H268D, S267D, A339T (antibody) the Fold Change vs. WT (hFcγRIIIa-V158 (human) [1]) was 4 fold, the Kd (hFcγRIIIa-V158 (human) [1]) was 119 nM and the koff (hFcγRIIIa-V158 (human) [1]) was 0.0525 s⁻¹. For the same substance, the kon (hFcγRIIIa-V158 (human) [1]) was 442000 M⁻¹ s⁻¹.

H268D, S298A (antibody) showed a Kd (hFcγRIIIa-V158 (human) [1]) of 95.7 nM.

In the case of H268D, Y373W (antibody), the Kd (hFcγRIIIa-V158 (human) [1]) is reported as 221 nM.

H268D, Y373W, S298A (antibody) was tested, and the Fold Change vs. WT (hFcγRIIIa-V158 (human) [1]) was 5.8 fold, the Kd (hFcγRIIIa-V158 (human) [1]) was 82.6 nM and the koff (hFcγRIIIa-V158 (human) [1]) was 0.0273 s⁻¹. For the same substance, the kon (hFcγRIIIa-V158 (human) [1]) was 332000 M⁻¹ s⁻¹.

H268D_A330Y_D376V (antibody) showed a Kd (hFcγRIIIa-V158 (human) [2]) of 87.6 nM and a Kd (hFcγRIIIa-V158 (human) [1]) of 152 nM.

For H268D_L251Q_L314M_S298A (antibody), the Fold-change relative to WT (hFcγRIIIa-V158 (human) [2]) was 11.8 fold, the Kd (hFcγRIIIa-V158 (human) [2]) was 24.6 nM and the koff (hFcγRIIIa-V158 (human) [2]) was 0.0125 s⁻¹. For the same substance, the kon (hFcγRIIIa-V158 (human) [2]) was 509000 M⁻¹ s⁻¹, the Fold Change vs. WT (hFcγRIIIa-V158 (human) [1]) was 7.8 fold and the Kd (hFcγRIIIa-V158 (human) [1]) was 60.8 nM. The koff (hFcγRIIIa-V158 (human) [1]) was 0.0279 s⁻¹ and the kon (hFcγRIIIa-V158 (human) [1]) was 509000 M⁻¹ s⁻¹.

H268D_L251Q_S298A (antibody) showed a Kd (hFcγRIIIa-V158 (human) [2]) of 31.1 nM and a Kd (hFcγRIIIa-V158 (human) [1]) of 55 nM.

H268D_L314T (antibody) gave a Fold-change relative to WT (hFcγRIIIa-V158 (human) [2]) of 3.5 fold, a Kd (hFcγRIIIa-V158 (human) [2]) of 83 nM and a koff (hFcγRIIIa-V158 (human) [2]) of 0.026 s⁻¹. For the same substance, the kon (hFcγRIIIa-V158 (human) [2]) was 314000 M⁻¹ s⁻¹, the Fold Change vs. WT (hFcγRIIIa-V158 (human) [1]) was 3.8 fold and the Kd (hFcγRIIIa-V158 (human) [1]) was 125 nM. For the same substance, the koff (hFcγRIIIa-V158 (human) [1]) was 0.0481 s⁻¹ and the kon (hFcγRIIIa-V158 (human) [1]) was 384000 M⁻¹ s⁻¹.

H268E, L314T, D376V (antibody) was tested, and the Kd (hFcγRIIIa-V158 (human) [1]) was 159 nM.

Work on “WT (from UniProt P01857 1-330) (antibody)” yielded a Kd (hFcγRIIIa-V158 (human) [3]) of 350 nM, a Kd (hFcγRIIIa-V158 (human) [2]) of 289 nM and a Kd (hFcγRIIIa-V158 (human) [4]) of 290 nM. The Kd (hFcγRIIIa-V158 (human) [5]) was 350 nM and the Kd (hFcγRIIIa-V158 (human) [1]) was 477 nM.

adalimumab (antibody) showed a Kd (hFcγRIIIa-V158 (human) [3]) of 190 nM and a Kd (hFcγRIIIa-V158 (human) [6]) of 310 nM.

— patent US20250154262A1
